Read-outs that look alike come from different tables or passages of the source.

The source of these data is article PMC5665649 (eLife, 2017).

Data set [1] addresses EGFP-GluA1 amino terminal domain fusion protein (UniProt P19490). As to the kind of experiment: AUC; FDS-SV titration for hetero-dimerization: constant low concentration (50 pM-1 nM) of the ATD carrying the fluorophore, unlabeled partner from 0.2 nM up to µM; sw isotherm fit with coupled competitive homo- and hetero-dimerization model, homodimer KD fixed; 20 °C, 50,000 rpm, 0.1 mg/mL BSA.

The target of data set [2] is GluA2 amino terminal domain (ATD), DyLight 488-labeled. In words: AUC; homodimer KD of GluA2 as given in Table 2 under UL GluA2 and DL-GluA2; the experiment itself is not described in this paper.
The target is the same in data set [3]. In words: AUC; direct Lamm equation fits, done here, of previously reported SV data for GluA2 (Zhao et al., 2013d) and GluA3 (Zhao et al., 2012); homodimer.
The target is the same in data set [4]. In words: AUC; FDS-SV titration for hetero-dimerization: constant low concentration (50 pM-1 nM) of the ATD carrying the fluorophore, unlabeled partner from 0.2 nM up to µM; sw isotherm fit with coupled competitive homo- and hetero-dimerization model, homodimer KD fixed; 20 °C, 50,000 rpm, 0.1 mg/mL BSA.
In data set [5] the target is EGFP-GluA4 amino terminal domain fusion protein (UniProt P19493). The data set is described as above.
Sequence of EGFP-GluA4 amino terminal domain fusion protein (P19493 21-413): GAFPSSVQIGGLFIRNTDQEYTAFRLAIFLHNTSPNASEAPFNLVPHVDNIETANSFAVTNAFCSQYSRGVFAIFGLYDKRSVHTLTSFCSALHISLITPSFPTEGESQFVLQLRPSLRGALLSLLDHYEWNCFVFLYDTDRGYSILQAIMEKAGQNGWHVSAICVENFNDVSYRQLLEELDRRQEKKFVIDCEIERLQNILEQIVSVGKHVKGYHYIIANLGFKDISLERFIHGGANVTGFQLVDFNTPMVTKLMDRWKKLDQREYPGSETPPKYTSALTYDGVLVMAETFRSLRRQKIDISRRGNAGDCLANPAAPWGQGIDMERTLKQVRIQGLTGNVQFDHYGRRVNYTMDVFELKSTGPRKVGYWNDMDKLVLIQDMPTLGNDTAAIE
The target of data set [6] is GluA3 amino terminal domain (ATD), unlabeled. In words: AUC; direct Lamm equation fits, done here, of previously reported SV data for GluA2 (Zhao et al., 2013d) and GluA3 (Zhao et al., 2012); homodimer.
Data set [7] addresses GluK1 amino terminal domain (ATD) G213N/M215T, DyLight 488-labeled. In words: AUC; fluorescence-detected sedimentation velocity (FDS-SV), tracer titration for self-association: 0.2-1 nM DyLight 488-labeled ATD with a series of the same unlabeled ATD; sw isotherm fit with monomer-dimer model (dimer to monomers); 20 °C, 50,000 rpm, 0.1 mg/mL BSA.
Data set [8] addresses GluK2 ATD (Rattus norvegicus) (UniProt P42260). Conditions: cited from earlier work.
For data set [9], the target named is GluK2 amino terminal domain (ATD) G215N/M217T, DyLight 488-labeled (UniProt P42260). As to the kind of experiment: AUC; FDS-SV titration for hetero-dimerization: constant low concentration (50 pM-1 nM) of the ATD carrying the fluorophore, unlabeled partner from 0.2 nM up to µM; sw isotherm fit with coupled competitive homo- and hetero-dimerization model, homodimer KD fixed; 20 °C, 50,000 rpm, 0.1 mg/mL BSA.

Data set [10] has as its target GluK1 amino terminal domain (ATD) G213N/M215T, DyLight 488-labeled. The description is as above.
Data set [11] concerns the target GluK4 amino terminal domain (ATD), unlabeled (UniProt Q01812). In words: AUC; sedimentation velocity with absorbance detection at 280 nm, unlabeled GluK4 0.3-29 µM; 20 °C, 50,000 rpm.
The target of data set [12] is GluK5 ATD (Rattus norvegicus) (UniProt Q63273). The conditions noted are these: cited from earlier work.
Data set [13] concerns the molecule itself. In words: AUC; FDS-SV, dilution series of the fluorescent protein alone (DyLight 488-GluK3 50 pM-1.2 µM; EGFP-GluA1 100 pM-1.2 µM; EGFP-GluA4 500 pM-1.2 µM); c(s) and sw isotherm, monomer-dimer model (dimer to monomers); 20 °C, 50,000 rpm, 0.1 mg/mL BSA.
For data set [14], the target named is T1, GluK5 amino terminal domain (ATD), DyLight 488-labeled.
T1 sequence (Q63273 whole entry, species assumed, looked up): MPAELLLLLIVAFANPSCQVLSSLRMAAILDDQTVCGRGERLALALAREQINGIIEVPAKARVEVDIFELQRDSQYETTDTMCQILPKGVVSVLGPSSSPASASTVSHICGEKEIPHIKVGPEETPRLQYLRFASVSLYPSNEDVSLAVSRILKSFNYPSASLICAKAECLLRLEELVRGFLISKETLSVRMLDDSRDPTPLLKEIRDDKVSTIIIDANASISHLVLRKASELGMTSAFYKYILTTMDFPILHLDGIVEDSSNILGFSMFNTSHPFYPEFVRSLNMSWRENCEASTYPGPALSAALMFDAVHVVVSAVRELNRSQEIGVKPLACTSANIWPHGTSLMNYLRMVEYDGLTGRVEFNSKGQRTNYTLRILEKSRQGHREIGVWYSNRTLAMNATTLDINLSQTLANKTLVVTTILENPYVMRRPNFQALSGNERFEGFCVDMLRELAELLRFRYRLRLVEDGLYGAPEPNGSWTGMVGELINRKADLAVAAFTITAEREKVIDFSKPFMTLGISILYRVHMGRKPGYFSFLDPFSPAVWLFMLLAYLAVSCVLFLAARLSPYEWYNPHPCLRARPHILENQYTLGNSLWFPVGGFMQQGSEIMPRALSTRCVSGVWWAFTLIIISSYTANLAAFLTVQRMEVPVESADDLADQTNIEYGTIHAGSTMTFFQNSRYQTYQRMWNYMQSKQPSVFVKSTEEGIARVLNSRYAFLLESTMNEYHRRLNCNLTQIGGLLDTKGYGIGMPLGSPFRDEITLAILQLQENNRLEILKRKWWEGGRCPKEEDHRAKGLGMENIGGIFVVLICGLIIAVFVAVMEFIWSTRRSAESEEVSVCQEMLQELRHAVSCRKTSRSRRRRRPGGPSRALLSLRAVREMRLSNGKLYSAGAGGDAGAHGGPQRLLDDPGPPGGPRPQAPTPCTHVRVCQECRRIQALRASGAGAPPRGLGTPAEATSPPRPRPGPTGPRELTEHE
In words: AUC; FDS-SV titration for hetero-dimerization: constant low concentration (50 pM-1 nM) of the ATD carrying the fluorophore, unlabeled partner from 0.2 nM up to µM; sw isotherm fit with coupled competitive homo- and hetero-dimerization model, homodimer KD fixed; 20 °C, 50,000 rpm, 0.1 mg/mL BSA.

Data set [15] addresses T2, GluK2 amino terminal domain (ATD) G215N/M217T, DyLight 488-labeled (UniProt P42260 32-420, G215N | M217T, DyLight 488 (NHS ester-activated), labeling ratios typically 0.9-1.3, sites not stated).
T2 construct: signal peptide in the construct; GluK2 kainate receptor ATD cDNA with native signal peptide, last residue Lys389; N-linked glycosylation site inserted in the lateral face; Same construct as m3, chemically labeled; also called DL-GluK2; DyLight 488-labeled GluK2; source: HEK cell suspension cultures, transient transfection (PEI), secreted into medium; purified (Ni2+ HiTrap chelating, thrombin …)
T2 sequence (looked up): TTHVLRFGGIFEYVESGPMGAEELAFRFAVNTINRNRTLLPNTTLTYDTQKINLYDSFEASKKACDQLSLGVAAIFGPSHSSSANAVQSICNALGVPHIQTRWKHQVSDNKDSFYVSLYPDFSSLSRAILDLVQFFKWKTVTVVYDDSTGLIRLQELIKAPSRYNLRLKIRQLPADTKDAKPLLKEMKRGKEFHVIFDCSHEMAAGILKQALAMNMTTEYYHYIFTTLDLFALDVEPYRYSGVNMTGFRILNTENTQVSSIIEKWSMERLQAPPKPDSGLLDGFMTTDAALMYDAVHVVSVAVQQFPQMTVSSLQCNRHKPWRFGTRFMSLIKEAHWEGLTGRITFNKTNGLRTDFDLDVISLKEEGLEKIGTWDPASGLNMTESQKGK
In words: AUC; fluorescence-detected sedimentation velocity (FDS-SV), tracer titration for self-association: 0.2-1 nM DyLight 488-labeled ATD with a series of the same unlabeled ATD; sw isotherm fit with monomer-dimer model (dimer to monomers); 20 °C, 50,000 rpm, 0.1 mg/mL BSA. The conditions noted are these: both partners purified.

Data set [16] concerns the molecule itself. As to the kind of experiment: AUC; FDS-SV, dilution series of the fluorescent protein alone (DyLight 488-GluK3 50 pM-1.2 µM; EGFP-GluA1 100 pM-1.2 µM; EGFP-GluA4 500 pM-1.2 µM); c(s) and sw isotherm, monomer-dimer model (dimer to monomers); 20 °C, 50,000 rpm, 0.1 mg/mL BSA. The source holds these as a separate data set.
Data set [17] concerns the molecule itself. Described as above. This is another data set of the same source.

In [1], “GluA2 amino terminal domain (ATD), unlabeled (domain or fragment)” showed a Kd of 0.0029 µM. Also, in data set [2], the Kd came to 0.0211 µM. Besides, in data set [3], the koff was > 0.003 s⁻¹ and the kon is > 140000 M⁻¹ s⁻¹.

“GluA3 amino terminal domain (ATD), unlabeled (domain or fragment)”: the figures for the Kd in [4], in data set [5] and in data set [1] were 0.0013 µM, 0.091 µM and 0.0083 µM, respectively. Further, the koff in [6] is > 0.003 s⁻¹.

Take “GluK1 amino terminal domain (ATD) G213N/M215T, unlabeled (domain or fragment)”: the Kd in [7] turned out to be 1.2 µM.

With GluK2 ATD (from UniProt P42260), in data set [8], the Kd is 0.25 µM.

With “GluK4 amino terminal domain (ATD), unlabeled (from UniProt Q01812 21-399) (domain or fragment)”, the results for the Kd in data set [9], in [10] and in data set [11] were 0.057 µM, 0.146 µM and > 1000 µM, respectively.

In the case of GluK5 ATD (from UniProt Q63273), the Kd in data set [12] is 350 µM.

“GluK5 amino terminal domain (ATD), unlabeled (domain or fragment)”: the Kd in data set [9] amounted to 0.012 µM; in data set [10] it was 0.018 µM.

B1: EGFP-GluA1 amino terminal domain fusion protein (domain or fragment, UniProt P19490 19-21, looked up)
chain: VGANFPNNIQIGGLFPNQQSQEHAAFRFALSQLTEPPKLLPQIDIVNISDSFEMTYRFCSQFSKGVYAIFGFYERRTVNMLTSFCGALHVCFITPSFPVDTSNQFVLQLRPELQEALISIIDHYKWQTFVYIYDADRGLSVLQRVLDTAAEKNWQVTAVNILTTTEEGYRMLFQDLEKKKERLVVVDCESERLNAILGQIVKLEKNGIGYHYILANLGFMDIDLNKFKESGANVTGFQLVNYTDTIPARIMQQWRTSDSRDHTRVDWKRPKYTSALTYDGVKVMAEAFQSLRRQRIDISRRGNAGDCLANPAVPWGQGIDIQRALQQVRFEGLTGNVQFNEKGRRTNYTLHVIEMKHDGIRKIGYWNEDDKFVPAATDAQAGGDNSSVQ
notes: signal peptide in the construct; GluA1 signal peptide and ATD, residues Met1-Phe21, before SGSG-EGFP; GluA1 AMPA receptor ATD, residues Val17-Gln405, after EGFP-SGSG; The two printed ranges overlap (17-21); also called GluA1 ATD-EGFP; GluA1-EGFP fusion protein; source: Sf9 insect cells, baculovirus (pFastBac1), secreted into medium; purified (Ni2+ HiTrap chelating, thrombin digestion, ion …)
In data set [13], B1 displayed a Kd of 0.0284 µM.

B2: GluK2 amino terminal domain (ATD) G215N/M217T, unlabeled (domain or fragment, UniProt P42260 32-420, looked up)
chain: TTHVLRFGGIFEYVESGPMGAEELAFRFAVNTINRNRTLLPNTTLTYDTQKINLYDSFEASKKACDQLSLGVAAIFGPSHSSSANAVQSICNALGVPHIQTRWKHQVSDNKDSFYVSLYPDFSSLSRAILDLVQFFKWKTVTVVYDDSTGLIRLQELIKAPSRYNLRLKIRQLPADTKDAKPLLKEMKRGKEFHVIFDCSHEMAAGILKQALAMNMTTEYYHYIFTTLDLFALDVEPYRYSGVNMTGFRILNTENTQVSSIIEKWSMERLQAPPKPDSGLLDGFMTTDAALMYDAVHVVSVAVQQFPQMTVSSLQCNRHKPWRFGTRFMSLIKEAHWEGLTGRITFNKTNGLRTDFDLDVISLKEEGLEKIGTWDPASGLNMTESQKGK
notes: signal peptide in the construct; GluK2 kainate receptor ATD cDNA with native signal peptide, last residue Lys389; N-linked glycosylation site inserted in the lateral face; also called UL GluK2; GluK2 ATD; source: HEK cell suspension cultures, transient transfection (PEI), secreted into medium; purified (Ni2+ HiTrap chelating, thrombin digestion, ion exchange)
Turning to B2, the Kd in data set [14] was determined as 0.0094 µM; in data set [10] it was 1.8 µM; in data set [15] it was 0.163 µM.

B3: GluK3 amino terminal domain (ATD) T221N/Y223S, DyLight 488-labeled (domain or fragment, UniProt P42264 32-423, looked up)
chain: MPHVIRIGGIFEYADGPNAQVMNAEEHAFRFSANIINRNRTLLPNTTLTYDIQRIHFHDSFEATKKACDQLALGVVAIFGPSQGSCTNAVQSICNALEVPHIQLRWKHHPLDNKDTFYVNLYPDYASLSHAILDLVQSLKWRSATVVYDDSTGLIRLQELIMAPSRYNIRLKIRQLPIDSDDSRPLLKEMKRGREFRIIFDCSHTMAAQILKQAMAMGMMNESYHFIFTTLDLYALDLEPYRYSGVNLTGFRILNVDNAHVSAIVEKWSMERLQAAPRAESGLLDGVMMTDAALLYDAVHIVSVCYQRASQMTVNSLQCHRHKPWRFGGRFMNFIKEAQWEGLTGRIVFNKTSGLRTDFDLDIISLKEDGLEKVGVWSPADGLNITEVAKGR
modifications: DyLight 488 (NHS ester-activated), labeling ratios typically 0.9-1.3, sites not stated
notes: signal peptide in the construct; GluK3 kainate receptor ATD cDNA with native signal peptide, last residue Arg392; N-linked glycosylation site inserted in the lateral face; also called DL-GluK3; DL GluK3; source: HEK cell suspension cultures, transient transfection (PEI), secreted into medium; purified (Ni2+ HiTrap chelating, thrombin digestion, ion exchange); labeled, Superdex 75
On to B3, for which, in [16], the “stoichiometry N” value came to 2. For the same molecule, the Kd in data set [17] is < 50 pM.
